Laboratory results published in the supplement of paper PMC10126150.
± gives the standard deviation of the averaged measurements.

System: ATP
Experiment: switch fluorescence ratio, 500 uM ATP over buffer (Cy3 cluster intensity, sum of 5 cycles each) (fold (ratio)); higher = stronger signal-on switching upon ATP binding; sequences stand for … in TCGTCGGCAGCGTCAGATGTGTATAAGAGACAGTTTTTTTTTTTTTTTTTTTTTTTTT…TC
Settings: aptamer strand: ATP DNA aptamer (quencher-CACCTGGGGGAGTATTGCGGAGGAAGG + anchor), 100 nM annealed; ATP concentration: 500 uM
How it was run: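 Imaging in selection buffer was followed by imaging after 15 min with 500 uM ATP at 22 °C, for Cy3-labelled switching-strand clusters annealed to 100 nM quencher-labelled ATP aptamer on a modified Illumina MiSeq flow-cell. Five of these buffer/ATP cycles ran, separated by NaOH stripping and re-annealing. The fluorescence ratio per cluster is summed target-cycle over summed buffer-cycle Cy3 intensity, averaged per switch-domain sequence; clusters outside 100-1000 RFU were removed.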
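Further: ATP exposure 15 min at 22 °C before imaging.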

Sequence | switch fluorescence ratio
TGGGTTAAGT | 1 ± 0.021
TGGGTTACTA | 1.002 ± 0.0097
TGGGTTCCCG | 0.986 ± 0.013
TGGGTTCGGC | 0.9808 ± 0.0045
TGGGTTCTAT | 0.9874 ± 0.0077
TGGGTTCTTG | 0.998 ± 0.044
TGGGTTGATT | 1.01 ± 0.031
TGGGTTGGGA | 0.991 ± 0.035
TGGGTTGGGG | 1.01 ± 0.049
TGGGTTGTAT | 0.998 ± 0.02
TGGGTTTAGC | 1 ± 0.043
TGGGTTTGGC | 1.02 ± 0.023
TGGTAAACGG | 0.988 ± 0.02
TGGTAAACGT | 1.05 ± 0.026
TGGTAAAGCT | 0.994 ± 0.017
TGGTAAATAT | 1.01 ± 0.013
TGGTAACGGT | 1.09 ± 0.12
TGGTAATTAG | 0.979 ± 0.014
TGGTACCTTT | 1.04 ± 0.012
TGGTAGAAGG | 0.954 ± 0.013
TGGTAGAGGG | 0.986 ± 0.014
TGGTAGCAGG | 1.24 ± 0.35
TGGTAGGGG | 1.01 ± 0.016
TGGTAGGTGG | 1.017 ± 0.0049
TGGTATGCGC | 0.9971 ± 0.0047

Sequence | switch fluorescence ratio
TGGTATGTCA | 0.9913 ± 0.0059
TGGTATGTGA | 1.01 ± 0.032
TGGTATGTGT | 1.003 ± 0.0057
TGGTCCAGAA | 0.977 ± 0.016
TGGTCCCTTG | 1.12 ± 0.16
TGGTCCGGGG | 1.01 ± 0.087
TGGTCGCGTT | 0.988 ± 0.043
TGGTCGGCTG | 1.007 ± 0.0044
TGGTCGTGGG | 1.01 ± 0.032
TGGTCTAGTG | 0.968 ± 0.043
TGGTCTATGC | 1.05 ± 0.012
TGGTCTTTTA | 0.9852 ± 0.0022
TGGTGAGGAG | 0.98 ± 0.013
TGGTGCAGGC | 0.702 ± 0.023
TGGTGCTTGG | 1.04 ± 0.013
TGGTGGCCCG | 1.04 ± 0.035
TGGTGGCTTA | 0.9827 ± 0.0025
TGGTGGCTTG | 0.991 ± 0.022
TGGTGGGAAT | 1.02 ± 0.011
TGGTGGGGAA | 0.974 ± 0.01
TGGTGGTTCG | 0.975 ± 0.061
TGGTGGTTGC | 0.96 ± 0.051
TGGTGTAAGT | 1.007 ± 0.0052
TGGTGTATGC | 1.03 ± 0.059
TGGTGTGTTT | 0.978 ± 0.035

Sequence | switch fluorescence ratio
TGGTTAAAAG | 0.977 ± 0.051
TGGTTAATCG | 0.9949 ± 0.0079
TGGTTACAAA | 0.997 ± 0.015
TGGTTACACG | 1.06 ± 0.046
TGGTTACCTA | 0.987 ± 0.039
TGGTTACGTT | 0.983 ± 0.018
TGGTTAGAAA | 1.04 ± 0.017
TGGTTAGTGG | 1 ± 0.02
TGGTTATTTT | 0.998 ± 0.036
TGGTTCCAAA | 0.971 ± 0.008
TGGTTCCAGT | 1.003 ± 0.0058
TGGTTCTGAC | 1.03 ± 0.038
TGGTTCTGTG | 1.0262 ± 0.00041
TGGTTGAGGG | 1.01 ± 0.013
TGGTTGAGGT | 0.963 ± 0.028
TGGTTGAGTA | 0.981 ± 0.017
TGGTTGATTG | 0.975 ± 0.047
TGGTTGCTCT | 0.9891 ± 0.008
TGGTTGGAGC | 0.997 ± 0.029
TGGTTGGATG | 1.003 ± 0.006
TGGTTGGCGG | 1.03 ± 0.062
TGGTTGGGAC | 0.9953 ± 0.0089
TGGTTGGGGC | 0.986 ± 0.023
TGGTTGTCGT | 1.01 ± 0.033
TGGTTGTTT | 0.9856 ± 0.0018

Sequence | switch fluorescence ratio
TGGTTGTTTG | 0.968 ± 0.035
TGGTTTAACA | 0.9924 ± 0.003
TGGTTTAGAG | 0.979 ± 0.024
TGGTTTAGGT | 0.995 ± 0.028
TGGTTTCA | 1.02 ± 0.041
TGGTTTCAGA | 0.984 ± 0.019
TGGTTTGATC | 1.01 ± 0.026
TGGTTTGGAG | 0.984 ± 0.057
TGGTTTGGCT | 1.03 ± 0.023
TGGTTTGGGT | 0.986 ± 0.026
TGTAAAGATT | 1.0093 ± 0.00041
TGTAAAGGAA | 0.992 ± 0.024
TGTAAATGGG | 0.984 ± 0.024
TGTAACGCTG | 0.974 ± 0.057
TGTAACTTCG | 1.001 ± 0.0082
TGTAAGAGAT | 1.01 ± 0.011
TGTAAGTTTC | 1.04 ± 0.073
TGTAATCAAA | 1 ± 0.022
TGTAATCTTC | 1.01 ± 0.016
TGTAATTGGG | 0.9881 ± 0.0015
TGTAATTTGA | 0.984 ± 0.021
TGTACGTAGG | 1.24 ± 0.21
TGTACGTGGC | 1.08 ± 0.086
TGTACTTCTT | 1.24 ± 0.3
TGTAGCAGGT | 1.155 ± 0.0025

Sequence | switch fluorescence ratio
TGTAGGAGGA | 1.01 ± 0.017
TGTAGGGCGA | 0.99 ± 0.034
TGTAGGGGCA | 0.99 ± 0.014
TGTAGGGGGA | 0.999 ± 0.052
TGTAGGGGTC | 1.01 ± 0.011
TGTAGGGTCA | 0.9819 ± 0.0023
TGTAGGTAAA | 0.997 ± 0.029
TGTAGGTGTT | 0.999 ± 0.077
TGTAGTAGGT | 1.004 ± 0.002
TGTAGTATCG | 1.016 ± 0.0045
TGTATAAGGT | 0.966 ± 0.023
TGTATGATGG | 1.02 ± 0.031
TGTATGGGGA | 0.9997 ± 0.004
TGTATGGGGG | 0.946 ± 0.038
TGTATGTGAG | 0.98 ± 0.054
TGTATTAGTA | 0.949 ± 0.0089
TGTATTGCGG | 1.02 ± 0.0071
TGTCAGGGGA | 1.018 ± 0.007
TGTCCGGGCT | 0.999 ± 0.028
TGTCCTGGCT | 1.02 ± 0.067
TGTCGACCG | 0.99 ± 0.014
TGTCGAGGGG | 0.981 ± 0.017
TGTCGGATCG | 1 ± 0.013
TGTCGGGCCT | 1.03 ± 0.042
TGTCGTGACA | 1.006 ± 0.0038

Sequence | switch fluorescence ratio
TGTCGTTCTT | 0.973 ± 0.013
TGTCGTTTAC | 1.05 ± 0.021
TGTCTTACCT | 1.147 ± 0.0093
TGTGAAGGTT | 0.986 ± 0.054
TGTGACGGGG | 1.02 ± 0.035
TGTGAGATTG | 1 ± 0.033
TGTGAGTTAG | 1 ± 0.025
TGTGAGTTGC | 0.949 ± 0.0069
TGTGATAGTG | 0.999 ± 0.053
TGTGATAGTT | 0.999 ± 0.015
TGTGATATAT | 0.9877 ± 0.0011
TGTGATGATG | 0.947 ± 0.036
TGTGATTGGG | 0.988 ± 0.017
TGTGATTTTT | 1.01 ± 0.028
TGTGCACATT | 1.02 ± 0.024
TGTGCAGCG | 1.02 ± 0.022
TGTGCGACCT | 1.16 ± 0.043
TGTGCGGGGG | 1.02 ± 0.019
TGTGCGGGTT | 1.02 ± 0.02
TGTGCTATTG | 0.983 ± 0.058
TGTGGAAAAT | 1.03 ± 0.074
TGTGGAAAGG | 1 ± 0.014
TGTGGCAGGT | 0.982 ± 0.031
TGTGGCCGGG | 0.998 ± 0.024
TGTGGCCGTT | 1.03 ± 0.059

Sequence | switch fluorescence ratio
TGTGGGAAAT | 0.988 ± 0.016
TGTGGGATGG | 1 ± 0.028
TGTGGGCTGG | 1.02 ± 0.012
TGTGGGGCCA | 0.96 ± 0.038
TGTGGGGCTG | 1.02 ± 0.08
TGTGGGGGAG | 1.03 ± 0.035
TGTGGGGGGA | 0.983 ± 0.037
TGTGGGGTTG | 0.994 ± 0.033
TGTGGGTAAA | 1.01 ± 0.042
TGTGGGTCCG | 1 ± 0.036
TGTGGTGGAG | 0.9617 ± 0.0071
TGTGGTGGTG | 0.978 ± 0.049
TGTGGTTGGG | 0.989 ± 0.027
TGTGTAAAGG | 1.04 ± 0.042
TGTGTAAGGC | 1.03 ± 0.038
TGTGTAGTTG | 0.9821 ± 0.0042
TGTGTATGGG | 1.19 ± 0.28
TGTGTATTCC | 1.05 ± 0.037
TGTGTGAGAA | 0.997 ± 0.022
TGTGTGCAAT | 1.0784 ± 0.001
TGTGTGGCGT | 1.003 ± 0.0042
TGTGTGGGTT | 1.01 ± 0.035
TGTGTGTATG | 0.999 ± 0.036
TGTGTTAAAT | 1.04 ± 0.011
TGTGTTGCCT | 1.05 ± 0.015

Sequence | switch fluorescence ratio
TGTGTTGGGG | 0.969 ± 0.024
TGTGTTGTTT | 1 ± 0.044
TGTGTTTTCG | 1 ± 0.014
TGTTAAACGC | 0.945 ± 0.03
TGTTAAAGGG | 1.03 ± 0.024
TGTTAAAGTT | 0.9908 ± 0.0045
TGTTAAATTT | 1.01 ± 0.045
TGTTAATCTG | 0.994 ± 0.021
TGTTAATGTT | 1 ± 0.029
TGTTACCGG | 1.004 ± 0.0037
TGTTACGGGG | 0.98654 ± 0.00045
TGTTACTTAT | 1.05 ± 0.016
TGTTAGGGGG | 1.01 ± 0.014
TGTTAGGGTG | 1.04 ± 0.033
TGTTAGTCTG | 1.03 ± 0.032
TGTTAGTTAC | 1.03 ± 0.025
TGTTAGTTAT | 1.06 ± 0.066
TGTTAGTTGG | 1.004 ± 0.0038
TGTTATAATT | 1 ± 0.0048
TGTTATAGCC | 1.03 ± 0.04
TGTTATATAG | 1.01 ± 0.033
TGTTATTGAT | 1.02 ± 0.029
TGTTATTGGC | 1.08 ± 0.084
TGTTATTTTG | 0.989 ± 0.041
TGTTCAGGGA | 1.048 ± 0.0073
